± gives the uncertainty stated by the source.
Experiment: amyloid nucleation score (Sup35N fusion, yeast selection) (log enrichment); library NNK1; higher = more nucleation; inactive = no reads after selection
Summary of the method: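 Output and input plasmid inserts were sequenced by Illumina after psi-negative yeast carrying Sup35N fused to peptides of 20 random codons had been induced 24 hours with 100 μM copper sulfate and grown 7 days at 30°C on medium lacking adenine and uracil. The nucleation score is the DiMSum log enrichment of output over input reads, centred on the mode score of non-aggregating sequences. Sequences with under 100 input reads were excluded.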

| Substance | amyloid nucleation score |
| --- | --- |
| LDEYINNEDSMFLCGILLSS | 0.2 ± 0.3 |
| YYGQII | 1.54 ± 0.38 |
| RDTNVWFHT | -0.267 ± 1.1 |
| CHNVAVPRVIVIGFDSGILY | 0.341 ± 0.7 |
| FTGDVPEDTLRLSSFENMRR | 0.384 ± 0.53 |
| NNVLCSGKMGRLCVGCIMPC | -0.507 ± 1.5 |
| YDASGLWMCKERAEGFMRNV | -0.273 ± 0.95 |
| RDSAL | 0.274 ± 0.4 |
| VALDMYCFQYFQTNYYS | 8.411 ± 0.045 |
| KGLGRF | -0.788 ± 0.74 |
| CSYRWVELLCSC | 3.93 ± 0.11 |
| GRAYGSVCILRLGC | 0.835 ± 0.63 |
| LRRLRTSYMLRAVLKLFLQP | 0.956 ± 0.58 |
| RLCPENLRTNFKCVLNFMVT | 4.81 ± 0.12 |
| WWVNL | 0.247 ± 0.3 |
| SESLWDRGTVPKRPCAASLQ | inactive |
| FSGQAITLVCWIVGQILPFS | inactive |
| VKTISCYMWFNVFN | 7.81 ± 0.05 |
| EIDNLHWVLVVNYPTSQFKR | -0.02 ± 0.39 |
| LWCVLHDVGGGSYSLDRYTG | 0.379 ± 0.83 |
| ISDFAYWQILCRVSDIFKVQ | 2.31 ± 0.13 |
| KRTLYSSIRF | 1.74 ± 0.15 |

| Substance | amyloid nucleation score |
| --- | --- |
| VDLNWRHVDCCYFRFTTQDH | 6.04 ± 0.074 |
| FTKFRYRTLINSYNFWGTGA | -0.115 ± 1.4 |
| LWVYSMWVQLTAGFNTVDVM | -0.707 ± 0.95 |
| TCFMNVSTQFCMSYKAQRSV | 0.11 ± 0.59 |
| QHPIWCNRSPLTHDRDTVG | 0.239 ± 0.24 |
| IIFKSVNYLLPIVVKNMCGT | 1.16 ± 0.13 |
| ICWNHTTVGFGMIMVVYYL | 1.95 ± 0.091 |
| YVLLGFNYKTFYMSVGLDRE | -0.005 ± 0.52 |
| FVGMSRFFKVH | -0.629 ± 0.39 |
| SLLSFCQSSRVTESSMAYCT | inactive |
| LLLVCMHGSFAMYMPLNNRW | 0.922 ± 0.93 |
| ILREQNSLDTSRFYRGRSLV | 0.187 ± 0.65 |
| NMAMYSIWGGWWMVLFCVLL | inactive |
| LFFQANKLLVIYNCRIYTTF | 6.32 ± 0.07 |
| MMKVIAANRVY | 0.315 ± 0.63 |
| SINLCGLWKVYYILAFMW | -2.26 ± 2.4 |
| SLSFTEVGRNRLSWRSAHSK | -0.616 ± 1.7 |
| TRAHGALYREEVKTWGSRLK | -0.998 ± 0.8 |
| IYPCICSRNFDPKLYKVNTR | 0.605 ± 0.66 |
| VLPMTGYSRLRPIYRFMFFD | 0.273 ± 0.44 |
| KWQEQGVIFSNFLLHRHWDV | -1.23 ± 1.6 |
| HDIAIMSSVGFSTAHDICSE | 0.26 ± 0.99 |

| Substance | amyloid nucleation score |
| --- | --- |
| ISLLGIWV | 0.939 ± 0.31 |
| YVNRVPLLEVLCP | -0.118 ± 1 |
| GYAFVY | -0.037 ± 0.52 |
| LNSGASMLWQTLSYPMSRVR | -0.506 ± 1.2 |
| ICILLFGVRSDCM | 1.44 ± 0.37 |
| GNLFITACFHAFVIWFHNGN | inactive |
| DKVMGRTQLTTCQYATGRCR | 0.406 ± 0.3 |
| HMVHGMFY | -0.251 ± 0.7 |
| ASAFVRVMNV | 0.527 ± 0.5 |
| RMYYT | -1.52 ± 0.82 |
| CRCAPYSNGKTGIHARLFNT | 0.794 ± 1.1 |
| GDIVQLGPKFCKLYLCIWNC | 6.369 ± 0.056 |
| NVILFNYLREILRLCYMACM | 0.758 ± 0.81 |
| ACWLAKHKEYRLSGHVQEFD | 0.035 ± 0.52 |
| ICSNGRARPGNMSV | -0.047 ± 1.7 |
| QGNHVKCVLCRVIPMRCLGL | -1.41 ± 1.1 |
| KTWRHSFLYFLTGIESRKGA | 0.094 ± 0.26 |
| GIEKLHDRITSLIFLSMGRR | 1.8 ± 0.19 |
| RNIWNLVLDKNAHMNCFMTH | 0.087 ± 0.46 |
| SNSRFMLHGWAGIWFIWSWG | 0.124 ± 0.5 |
| FNPLRVNYGLWDRSAR | 0.248 ± 0.83 |
| TQVWTQRCPCKEASRPGLRT | -1.19 ± 2.7 |

| Substance | amyloid nucleation score |
| --- | --- |
| CFTICFVGYCSRVKGWLMQR | -0.617 ± 0.71 |
| WHKMMQLSLCSEYELLFNLQ | 0.51 ± 0.9 |
| TRTAGRSVCPVIQLMSWAAY | 0.277 ± 0.44 |
| NDRVNRNTFSYPWQVAFFRQ | 4.94 ± 0.064 |
| EANCLFEWSMMLRYSARDGT | 0.312 ± 1.4 |
| CVHQIVGLTRIPFGWELSWR | -1.62 ± 1.7 |
| SIVETAVVSKYVERSYGQEG | -0.437 ± 0.36 |
| TYIPDIYG | 1.1 ± 0.74 |
| IMMSYRFHFNNSERIRGCVR | -0.321 ± 0.26 |
| VLNEAYYDLYVYSHVSFSVL | -0.248 ± 0.42 |
| SQTSVPGGSDEAGAGVKQGF | 0.134 ± 0.56 |
| PNIKLSDRLGIIRREIWMVV | 0.54 ± 0.39 |
| RLAQYHMYIKFETGYN | 1.23 ± 0.36 |
| LVMRRKYLVNSNTLCSFGLH | inactive |
| PSWSPKAIKFQHVLYFVKFL | 0.236 ± 0.59 |
| WPGMPRS | 1.17 ± 0.35 |
| YNFCILCSSPIIVFAAPVQR | 8.034 ± 0.051 |
| NSRGAQVCDICSIRMFNCCP | 7.149 ± 0.048 |
| CMMMYVCLLSSGHVGMSLGV | 0.18 ± 0.43 |
| FRFGTA | 0.39 ± 0.49 |
| WFFGRYHGTGQNMFRG | 2.15 ± 0.18 |
